The values below come from patent publication US20240270821A1, “GIP/GLP1/GCG TRI-RECEPTOR AGONISTS AND USES THEREOF” (priority 2023, published 2024).

Substitutions are numbered along the chain they refer to.

Holding throughout (assay): cell-based or functional assay
One assay addresses hGLP-1R (Homo sapiens, UniProt P43220).
Assay [1] concerns the target human glucagon receptor (human) (UniProt P47871).
Assay [2] concerns the target T1, human GIP receptor (human) (UniProt P48546).
T1 sequence (looked up): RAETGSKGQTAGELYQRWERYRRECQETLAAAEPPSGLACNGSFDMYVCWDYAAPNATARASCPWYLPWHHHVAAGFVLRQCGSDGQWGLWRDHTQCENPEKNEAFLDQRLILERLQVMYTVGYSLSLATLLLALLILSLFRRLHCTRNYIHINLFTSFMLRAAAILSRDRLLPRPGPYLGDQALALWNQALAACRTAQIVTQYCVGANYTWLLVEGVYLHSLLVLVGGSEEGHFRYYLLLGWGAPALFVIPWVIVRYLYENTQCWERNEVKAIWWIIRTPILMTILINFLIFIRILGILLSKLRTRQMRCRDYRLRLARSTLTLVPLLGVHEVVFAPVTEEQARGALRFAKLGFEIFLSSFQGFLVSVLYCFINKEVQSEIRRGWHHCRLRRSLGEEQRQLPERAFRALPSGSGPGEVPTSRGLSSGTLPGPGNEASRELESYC

Chain of human glucagon receptor (human) (P47871 26-477): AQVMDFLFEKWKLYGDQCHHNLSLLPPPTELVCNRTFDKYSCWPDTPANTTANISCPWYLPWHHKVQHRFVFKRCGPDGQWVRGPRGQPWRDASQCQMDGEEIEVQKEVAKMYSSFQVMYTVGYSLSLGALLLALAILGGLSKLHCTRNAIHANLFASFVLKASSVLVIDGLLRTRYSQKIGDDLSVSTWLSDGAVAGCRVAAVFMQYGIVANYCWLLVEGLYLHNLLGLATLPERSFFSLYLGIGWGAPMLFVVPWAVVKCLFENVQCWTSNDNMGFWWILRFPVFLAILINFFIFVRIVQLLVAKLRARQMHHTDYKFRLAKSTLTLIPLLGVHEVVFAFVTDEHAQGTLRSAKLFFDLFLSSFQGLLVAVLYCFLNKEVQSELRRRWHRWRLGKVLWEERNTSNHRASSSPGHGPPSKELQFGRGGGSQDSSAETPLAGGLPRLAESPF
Chain of hGLP-1R (P43220 24-463): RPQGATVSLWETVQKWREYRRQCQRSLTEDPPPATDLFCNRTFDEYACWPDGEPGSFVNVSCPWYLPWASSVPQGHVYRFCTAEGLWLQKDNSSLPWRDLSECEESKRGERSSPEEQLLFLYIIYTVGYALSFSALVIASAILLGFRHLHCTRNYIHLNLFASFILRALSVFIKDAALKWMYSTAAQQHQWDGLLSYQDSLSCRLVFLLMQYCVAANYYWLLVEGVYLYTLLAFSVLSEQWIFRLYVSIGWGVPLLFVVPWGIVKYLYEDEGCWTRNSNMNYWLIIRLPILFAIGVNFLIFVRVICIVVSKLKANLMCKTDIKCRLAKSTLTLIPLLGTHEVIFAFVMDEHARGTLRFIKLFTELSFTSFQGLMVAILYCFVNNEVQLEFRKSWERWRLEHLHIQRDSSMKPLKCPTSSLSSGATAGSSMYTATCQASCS

B1: Example 611 (peptide)
chain: YXQGTXTSDXSILLDKKAQXAFIEYLEEGGPSSGAPPPSGEEE
modifications: non-natural residues; Lys acylated C18 diacid; C-terminal amide; synthetic construct; SITE 2: note = 2-Aminoisobutyric Acid; SITE 6: note = alpha-methyl-2-fluoro-L-phenylalanine; SITE 10: note = 3-(4-Pyridyl)-L-alanine; SITE 17: note = Lysine is chemically modified through conjugation of the epsilon-amino group of the Lysine side chain with (gamma-Glu)2-CO-(CH2)1
For the molecule B1, the Relative cAMP EC50 in the assay with hGLP-1R was 1.63 nM; in assay [1], 6.8 nM; in assay [2] it was 0.126 nM. In addition, the cAMP Rel EC50 (in the presence of 1% HSA) came to 146 nM with hGLP-1R, 627 nM in assay [1] and 7.35 nM in assay [2].

B2: Example 630 (peptide)
chain: B1 chain with L13X, A35E, E41S
modifications: non-natural residues; lipidated Lys; C-terminal amide; synthetic construct; SITE 2: note = 2-Aminoisobutyric Acid; SITE 6: note = alpha-methyl-2-fluoro-L-phenylalanine; SITE 10: note = 3-(4-Pyridyl)-L-alanine; SITE 13: note = alpha-methyl-leucine; SITE 17: note = Lysine is chemically modified through conjugation of the epsilon-amino group of the Lysine
Take B2: the Relative cAMP EC50 with hGLP-1R stood at 0.762 nM; in assay [1], 8.07 nM; in assay [2] it was 0.0233 nM. Further, the values for the cAMP Rel EC50 (in the presence of 1% HSA) (with hGLP-1R; in assay [1]; in assay [2]) were 74.5 nM, 872 nM and 2.96 nM, respectively.

B3: Example 625 (peptide)
chain: B1 chain with L13X, A35E, E42G
modifications: non-natural residues; lipidated Lys; C-terminal amide; synthetic construct; SITE 2: note = 2-Aminoisobutyric Acid; SITE 6: note = alpha-methyl-2-fluoro-L-phenylalanine; SITE 10: note = 3-(4-Pyridyl)-L-alanine; SITE 13: note = alpha-methyl-leucine; SITE 17: note = Lysine is chemically modified through conjugation of the epsilon-amino group of the Lysine
Regarding B3, the Relative cAMP EC50 was 1.16 nM with hGLP-1R, 8.53 nM in assay [1] and 0.0291 nM in assay [2]. For the same molecule, the figures for the cAMP Rel EC50 (in the presence of 1% HSA) (in the assay with hGLP-1R; in assay [1]; in assay [2]) were 72.1 nM, 657 nM and 1.81 nM, respectively.

B4: Example 620 (peptide)
chain: B1 chain with E41A, E42G
modifications: Aib, αMeF(2F), 4Pal; acylated K; C-terminal amide; synthetic construct; SITE 2: note = 2-Aminoisobutyric Acid; SITE 6: note = alpha-methyl-2-fluoro-L-phenylalanine; SITE 10: note = 3-(4-Pyridyl)-L-alanine; SITE 17: note = Lysine is chemically modified through conjugation of the epsilon-amino group of the Lysine side chain with (gamma-Glu)2-CO-(CH2)1
Take B4: the Relative cAMP EC50 with hGLP-1R turned out to be 0.981 nM; in assay [1] it was 8.26 nM; in assay [2], 0.0706 nM. In addition, the figures for the cAMP Rel EC50 (in the presence of 1% HSA) (in the assay with hGLP-1R; in assay [1]; in assay [2]) were 90.7 nM, 665 nM and 5.96 nM, respectively.

B5: Example 622 (peptide)
chain: B1 chain with L13X, E41T, E42G
modifications: non-natural residues; (γGlu)2-C18 diacid acyl; C-terminal amide; synthetic construct; SITE 2: note = 2-Aminoisobutyric Acid; SITE 6: note = alpha-methyl-2-fluoro-L-phenylalanine; SITE 10: note = 3-(4-Pyridyl)-L-alanine; SITE 13: note = alpha-methyl-leucine; SITE 17: note = Lysine is chemically modified through conjugation of the epsilon-amino group of the Lysine
For the molecule B5, the results for the Relative cAMP EC50 (with hGLP-1R; in assay [1]; in assay [2]) were 0.776 nM, 7.7 nM and 0.0148 nM, respectively. In addition, the cAMP Rel EC50 (in the presence of 1% HSA) was 52.3 nM in the assay with hGLP-1R, 641 nM in assay [1] and 1.19 nM in assay [2].

B6: Example 633 (peptide)
chain: B1 chain with L13X, E27T, A35E, E41S
modifications: non-natural residues, C18 diacid acylation, C-terminal amide; synthetic construct; SITE 2: note = 2-Aminoisobutyric Acid; SITE 6: note = alpha-methyl-2-fluoro-L-phenylalanine; SITE 10: note = 3-(4-Pyridyl)-L-alanine; SITE 13: note = alpha-methyl-leucine; SITE 17: note = Lysine is chemically modified through conjugation of the epsilon-amino group of the Lysine
On to B6, for which the Relative cAMP EC50 in the assay with hGLP-1R worked out at 0.421 nM; in assay [1] it was 10.2 nM; in assay [2], 0.0186 nM. In addition, the results for the cAMP Rel EC50 (in the presence of 1% HSA) (with hGLP-1R; in assay [1]; in assay [2]) were 41.2 nM, 1500 nM and 1.63 nM, respectively.

B7: Example 631 (peptide)
chain: B1 chain with L13X, E27A, A35E, E41S
modifications: non-natural residues; acylated Lys; C-terminal amide; synthetic construct; SITE 2: note = 2-Aminoisobutyric Acid; SITE 6: note = alpha-methyl-2-fluoro-L-phenylalanine; SITE 10: note = 3-(4-Pyridyl)-L-alanine; SITE 13: note = alpha-methyl-leucine; SITE 17: note = Lysine is chemically modified through conjugation of the epsilon-amino group of the Lysine
In the case of B7, the figures for the Relative cAMP EC50 (with hGLP-1R; in assay [1]; in assay [2]) were 0.658 nM, 16.8 nM and 0.0375 nM, respectively. Besides, the cAMP Rel EC50 (in the presence of 1% HSA) in the assay with hGLP-1R was found to be 55 nM; in assay [1] it was 1250 nM; in assay [2], 3.92 nM.

B8: Example 618 (peptide)
chain: B1 chain with E41S, E42G
modifications: non-natural residues, C18 diacid acylation, C-terminal amide; synthetic construct; SITE 2: note = 2-Aminoisobutyric Acid; SITE 6: note = alpha-methyl-2-fluoro-L-phenylalanine; SITE 10: note = 3-(4-Pyridyl)-L-alanine; SITE 17: note = Lysine is chemically modified through conjugation of the epsilon-amino group of the Lysine side chain with (gamma-Glu)2-CO-(CH2)1
Turning to B8, the Relative cAMP EC50 with hGLP-1R worked out at 1.53 nM; in assay [1], 5.57 nM; in assay [2], 0.0418 nM. For the same molecule, the cAMP Rel EC50 (in the presence of 1% HSA) with hGLP-1R was found to be 88.9 nM; in assay [1] it was 691 nM; in assay [2], 4.63 nM.

B9: Example 623 (peptide)
chain: B1 chain with L13X, E42G
modifications: C-terminal amide; lysine acylated with (γ-Glu)2-C18 diacid; synthetic construct; SITE 2: note = 2-Aminoisobutyric Acid; SITE 6: note = alpha-methyl-2-fluoro-L-phenylalanine; SITE 10: note = 3-(4-Pyridyl)-L-alanine; SITE 13: note = alpha-methyl-leucine; SITE 17: note = Lysine is chemically modified through conjugation of the epsilon-amino group of the Lysine
As for B9, the Relative cAMP EC50 came to 0.907 nM with hGLP-1R, 7.94 nM in assay [1] and 0.0224 nM in assay [2]. Further, the cAMP Rel EC50 (in the presence of 1% HSA) with hGLP-1R came out at 62.2 nM; in assay [1], 832 nM; in assay [2], 1.48 nM.

B10: Example 621 (peptide)
chain: B1 chain with E42G
modifications: non-natural residues, lysine acylation, C-terminal amide; synthetic construct; SITE 2: note = 2-Aminoisobutyric Acid; SITE 6: note = alpha-methyl-2-fluoro-L-phenylalanine; SITE 10: note = 3-(4-Pyridyl)-L-alanine; SITE 17: note = Lysine is chemically modified through conjugation of the epsilon-amino group of the Lysine side chain with (gamma-Glu)2-CO-(CH2)1
For the molecule B10, the Relative cAMP EC50 with hGLP-1R is 1.28 nM; in assay [1], 6.81 nM; in assay [2], 0.0661 nM. The cAMP Rel EC50 (in the presence of 1% HSA) in the assay with hGLP-1R amounted to 111 nM; in assay [1], 901 nM; in assay [2], 7.31 nM.

B11: Example 632 (peptide)
chain: B1 chain with L13X, E27S, A35E, E41S
modifications: Aib, αMeF(2F), 4Pal, αMeL, acylated K, C-terminal amide; synthetic construct; SITE 2: note = 2-Aminoisobutyric Acid; SITE 6: note = alpha-methyl-2-fluoro-L-phenylalanine; SITE 10: note = 3-(4-Pyridyl)-L-alanine; SITE 13: note = alpha-methyl-leucine; SITE 17: note = Lysine is chemically modified through conjugation of the epsilon-amino group of the Lysine
B11: the Relative cAMP EC50 turned out to be 0.951 nM with hGLP-1R, 13.5 nM in assay [1] and 0.068 nM in assay [2]. Further, the cAMP Rel EC50 (in the presence of 1% HSA) is 88.2 nM in the assay with hGLP-1R, 1600 nM in assay [1] and 5.48 nM in assay [2].
